Positions count from the first letter of the chain named. In names and notes the source's numbering stands.

Here are results for 32 molecules from patent publication EP4803541A1 (Changchun Genescience Pharmaceutical Co., Ltd., dated 2026).

B1: M53 (Second round) (VHH)
VHH: QVQLVESGGGLAQAGGSLRLSCAVSGMPEFARAMGWFRQAPGKERELLAAIEGIGDTTYYADSVKGRFTISRDDAANTVLLQMNSLKPDDTAVYYCAAAFSVTIPTRAEHWVDWGPGTLVTVSS
notes: Entry already carries A57D; R100eE); tail DDDDK-SGGGGS-HHHHHH
B2: M71 (Second round) (VHH)
VHH: B1 VHH with P116Q
notes: Entry already carries A57D; P117Q; R100eE; P105Q); tail DDDDK-SGGGGS-HHHHHH
B3: M79 (Second round) (VHH)
VHH: B1 VHH with L48V
notes: Entry already carries A57D; R110E; A55D; R100eE); tail DDDDK-SGGGGS-HHHHHH
B4: M76 (Second round) (VHH)
VHH: B1 VHH with E109R, W111F
notes: Entry already carries A57D; G134R; W100gF); tail DDDDK-SGGRGS-HHHHHH
B5: M81 (Second round) (VHH)
VHH: B1 VHH with P116Q
notes: Entry already carries A57D; G134R; P117Q; R100eE; P105Q); tail DDDDK-SGGRGS-HHHHHH
B6: M69 (Second round) (VHH)
VHH: B1 VHH with P28T, D56A, E109R
notes: Entry already carries P29T; tail DDDDK-SGGRGS-HHHHHH
B7: M72 (Second round) (VHH)
VHH: B1 VHH with E109R, W111F, D113Y
notes: Entry already carries A57D; D114Y; W100gF; D102Y); tail DDDDK-SGGGGS-HHHHHH
B8: M78 (Second round) (VHH)
VHH: B1 VHH with E109R, D113Y
notes: Entry already carries A57D; G134R; D102Y); tail DDDDK-SGGRGS-HHHHHH
B9: M59 (Second round) (VHH)
VHH: B1 VHH with P28T, E109R
notes: Entry already carries A57D; A55D); tail DDDDK-SGGGGS-HHHHHH
B10: M67 (Second round) (VHH)
VHH: B1 VHH with A14P, D56A, E109R, P116Q
notes: Entry already carries A15P; P105Q); tail DDDDK-SGGGGS-HHHHHH
B11: M66 (Second round) (VHH)
VHH: B1 VHH with A14P, P28T, D56A, E109R
notes: Entry already carries P29T; P28T); tail DDDDK-SGGGGS-HHHHHH
B12: M75 (Second round) (VHH)
VHH: B1 VHH with D113Y
notes: Entry already carries A57D; R110E; R100eE; D102Y); tail DDDDK-SGGGGS-HHHHHH
B13: M82 (Second round) (VHH)
VHH: B1 VHH with D113Y
notes: Entry already carries A57D; G134R; R110E; R100eE; D102Y); tail DDDDK-SGGRGS-HHHHHH
B14: M68 (Second round) (VHH)
VHH: B1 VHH with A14P, R19T, D56A, E109R
notes: Entry already carries A15P; R19T); tail DDDDK-SGGGGS-HHHHHH
B15: M74 (Second round) (VHH)
VHH: B1 VHH
notes: Entry already carries A57D; G134R; R100eE); tail DDDDK-SGGRGS-HHHHHH
B16: M83 (Second round) (VHH)
VHH: B1 VHH with W111F, P116Q
notes: Entry already carries A57D; P117Q; R110E; R100eE; W100gF; P105Q); tail DDDDK-SGGGGS-HHHHHH
B17: M64 (Second round) (VHH)
VHH: B1 VHH with A14P, D56A, E109R
notes: Entry already carries A15P; tail DDDDK-SGGRGS-HHHHHH
B18: M88 (Second round) (VHH)
VHH: B1 VHH with L48V
notes: Entry already carries A57D; G134R; R110E; A55D; R100eE); tail DDDDK-SGGRGS-HHHHHH
B19: M89 (Second round) (VHH)
VHH: B1 VHH with W111F
notes: Entry already carries A57D; G134R; R110E; R100eE; W100gF); tail DDDDK-SGGRGS-HHHHHH
B20: M70 (Second round) (VHH)
VHH: B1 VHH with A14P, D56A
notes: Entry already carries A15P; R100eE); tail DDDDK-SGGGGS-HHHHHH
B21: M77 (Second round) (VHH)
VHH: B1 VHH with W111F
notes: Entry already carries A57D; R110E; R100eE; W100gF); tail DDDDK-SGGGGS-HHHHHH
B22: M8 (First round) (VHH)
VHH: B1 VHH with D56A, E109R, D113Y
notes: tail DDDDK-SGGGGS-HHHHHH
B23: M25 (First round) (VHH)
VHH: B1 VHH with D56A, E109R, V112D
notes: tail DDDDK-SGGGGS-HHHHHH
B24: M11 (First round) (VHH)
VHH: B1 VHH with D56A, E109R, P116Q
B25: M33 (First round) (VHH)
VHH: B1 VHH with E109R
B26: M34 (First round) (VHH)
VHH: B1 VHH with D56A, N77S, E109R
B27: M24 (First round) (VHH)
VHH: B1 VHH with D56A, E109R, W111F
B28: M45 (First round) (VHH)
VHH: B1 VHH with D56A, E109R
B29: M22 (First round) (VHH)
VHH: B1 VHH with L11K, D56A, E109R
B30: M28 (First round) (VHH)
VHH: B1 VHH with R19T, D56A, E109R
B31: M20 (First round) (VHH)
VHH: B1 VHH with L48V, D56A, E109R
B32: WT (with tag), unmodified GH single-domain antibody molecule (VHH)
VHH: B1 VHH with D56A, E109R

Chain of GH (GH stock solution) (P01241 27-217 limits assumed): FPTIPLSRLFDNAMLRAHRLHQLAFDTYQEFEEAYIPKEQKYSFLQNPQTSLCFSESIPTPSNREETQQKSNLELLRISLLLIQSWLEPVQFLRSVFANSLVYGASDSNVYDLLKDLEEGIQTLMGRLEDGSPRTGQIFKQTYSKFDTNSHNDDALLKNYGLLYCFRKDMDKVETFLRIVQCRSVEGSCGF
Chain of rhGH protein (UniProt: P01241) (human) (UniProt P01241) (P01241 27-217 limits assumed, one chain of several): as the sequence (P01241 27-217 limits assumed) above

The first assay deals with T1, rhGH protein (UniProt: P01241) (human, UniProt P01241 27-217).
T1 construct: Coated at 5 ug/ml in the ELISA; also called human growth hormone
T1 sequence (P01241 27-217 limits assumed, one chain of several): as the sequence (P01241 27-217 limits assumed) above
The assay is described as follows: ELISA on coated rhGH; sample after 0.5M NaOH 24h.
On to B1, for which the binding result was “binds”.

Turning to B2, the binding result is “binds”.

As to B3, the binding result is recorded as “binds”.

B4: the binding result is “binds”.

Take B5: the binding result was “binds”.

Turning to B6, the binding result is recorded as “binds”.

Take B7: the binding result is recorded as “binds”.

Consider B8, for which the binding result was “binds”.

In the case of B9, the binding result was “binds”.

For the molecule B10, the binding result is recorded as “binds”.

Regarding B11, the binding result was “binds”.

For the molecule B12, the binding result is recorded as “binds”.

As to B13, the binding result was “binds”.

As for B14, the binding result is “binds”.

As for B15, the binding result is reported as “binds”.

On to B16, for which the binding result is “binds”.

For B17, the binding result is listed as “binds”.

As for B18, the binding result was “binds”.

In the case of B19, the binding result is listed as “binds”.

Regarding B20, the binding result is reported as “binds”.

In the case of B21, the binding result is on record as “binds”.

A further assay addresses T1, rhGH protein (UniProt: P01241). The assay is described as follows: ELISA on coated rhGH, anti-6*His HRP; sample after 0.3 M NaOH 24h. Background: An ELISA detects its analyte on a solid surface through an enzyme-linked reagent.
With B22, the binding result is listed as “binds”.

Consider B23, for which the binding result was “binds”.

A further assay concerns the target rhGH protein (UniProt: P01241) (human) (UniProt P01241). The assay is described as follows: ELISA on coated rhGH, anti-6*His HRP; sample after 0.5M NaOH 24h, against WT. Also noted: unit not given beside the values.
In the case of B24, the EC50 against that of the WT after 0.5M alkali (% higher than WT) was determined as 50.

For the molecule B25, the EC50 against that of the WT after 0.5M alkali (% higher than WT) was 50.

B26 yielded an EC50 against that of the WT after 0.5M alkali (% higher than WT) of 50.

B27 returned an EC50 against that of the WT after 0.5M alkali (% higher than WT) of 50.

Consider B28, for which the EC50 against that of the WT after 0.5M alkali (% higher than WT) stood at 50.

Turning to B29, the EC50 against that of the WT after 0.5M alkali (% higher than WT) was 50.

B30 registered an EC50 against that of the WT after 0.5M alkali (% higher than WT) of 50.

Molecule B31 returned an EC50 against that of the WT after 0.5M alkali (% higher than WT) of 50.

B6: the EC50 against that of the WT after 0.5M alkali (% higher than WT) turned out to be 50.

Molecule B17 gave an EC50 against that of the WT after 0.5M alkali (% higher than WT) of 50.

Another assay has as its target GH (GH stock solution) (UniProt P01241). The assay is described as follows: loss of dynamic binding capacity of the conjugated medium for GH after 0.1M NaOH 32h.
B32 had a DBC decay rate of 35%.

On to B31, for which the DBC decay rate was below 6%.

B8 gave a DBC decay rate below 6%.

B15 registered a DBC decay rate below 6%.

For the next assay the target is unchanged. The assay is described as follows: loss of dynamic binding capacity of the conjugated medium for GH after 0.5M NaOH 24h.
Molecule B32 had a residual DBC (a decrease of DBC) of 85%.

For B31, the residual DBC (a decrease of DBC) was below 49%.

B8 came in with a residual DBC (a decrease of DBC) below 49%.

In turn, B15 gave a residual DBC (a decrease of DBC) below 49%.

The target is the same in a further assay. The assay is described as follows: affinity chromatography, VHH-conjugated medium loaded with GH stock solution; medium in 0.1M NaOH 0h.
B28 showed a dynamic binding capacity at 10% breakthrough of 18.2.

B32 gave a dynamic binding capacity at 10% breakthrough of 22.3.

Take B31: the dynamic binding capacity at 10% breakthrough was 19.6.

In turn, B8 yielded a dynamic binding capacity at 10% breakthrough of 16.3.

On to B10, for which the dynamic binding capacity at 10% breakthrough came to 15.9.

With B14, the dynamic binding capacity at 10% breakthrough is 15.9.

For B15, the dynamic binding capacity at 10% breakthrough is 15.

For another assay the target is unchanged. The assay is described as follows: affinity chromatography, VHH-conjugated medium loaded with GH stock solution; medium in 0.5M NaOH 0h.
In the case of B28, the dynamic binding capacity at 10% breakthrough stood at 18.2.

Consider B32, for which the dynamic binding capacity at 10% breakthrough worked out at 22.3.

B31 gave a dynamic binding capacity at 10% breakthrough of 19.6.

Take B8: the dynamic binding capacity at 10% breakthrough was 16.3.

B10 showed a dynamic binding capacity at 10% breakthrough of 15.9.

In the case of B14, the dynamic binding capacity at 10% breakthrough came out at 15.3.

B15: the dynamic binding capacity at 10% breakthrough turned out to be 14.7.

For another assay the target is unchanged. The assay is described as follows: affinity chromatography, VHH-conjugated medium loaded with GH stock solution; medium in 0.5M NaOH 6h.
Molecule B28 yielded a dynamic binding capacity at 10% breakthrough of 7.6.

For the molecule B32, the dynamic binding capacity at 10% breakthrough was 5.78.

Take B31: the dynamic binding capacity at 10% breakthrough stood at 14.3.

Take B8: the dynamic binding capacity at 10% breakthrough came out at 13.5.

For the molecule B10, the dynamic binding capacity at 10% breakthrough is 10.2.

For the molecule B14, the dynamic binding capacity at 10% breakthrough worked out at 12.2.

For the molecule B15, the dynamic binding capacity at 10% breakthrough is 13.2.

For another assay the target is unchanged. The assay is described as follows: affinity chromatography, VHH-conjugated medium loaded with GH stock solution; medium in 0.1M NaOH 24h.
B28 had a dynamic binding capacity at 10% breakthrough of 17.4.

As for B32, the dynamic binding capacity at 10% breakthrough was found to be 16.2.

B31 yielded a dynamic binding capacity at 10% breakthrough of 18.

B8: the dynamic binding capacity at 10% breakthrough stood at 16.3.

B10 returned a dynamic binding capacity at 10% breakthrough of 16.2.

B14 yielded a dynamic binding capacity at 10% breakthrough of 16.2.

Molecule B15 returned a dynamic binding capacity at 10% breakthrough of 15.8.

A further assay shares this target. The assay is described as follows: affinity chromatography, VHH-conjugated medium loaded with GH stock solution; medium in 0.1M NaOH 32h.
B28 displayed a dynamic binding capacity at 10% breakthrough of 16.2.

On to B32, for which the dynamic binding capacity at 10% breakthrough came to 14.7.

Take B31: the dynamic binding capacity at 10% breakthrough amounted to 16.9.

Regarding B8, the dynamic binding capacity at 10% breakthrough stood at 15.4.

B10 displayed a dynamic binding capacity at 10% breakthrough of 14.9.

The molecule B14 came in with a dynamic binding capacity at 10% breakthrough of 15.4.

Molecule B15 returned a dynamic binding capacity at 10% breakthrough of 15.4.

Another assay has the same target. The assay is described as follows: affinity chromatography, VHH-conjugated medium loaded with GH stock solution; medium in 0.5M NaOH 24h.
In turn, B28 gave a dynamic binding capacity at 10% breakthrough of 4.29.

B32 showed a dynamic binding capacity at 10% breakthrough of 3.39.

For B31, the dynamic binding capacity at 10% breakthrough was determined as 10.2.

B8 showed a dynamic binding capacity at 10% breakthrough of 9.06.

Turning to B10, the dynamic binding capacity at 10% breakthrough was determined as 4.23.

Take B14: the dynamic binding capacity at 10% breakthrough was found to be 5.41.

Molecule B15 came in with a dynamic binding capacity at 10% breakthrough of 8.24.
